Test results: US20210395381A1 (OSSIANIX, published 2021)
Positions count from the first letter of the chain named.

B1: Clone 9 (VNAR)
VNAR: ARVDQTPQTITKETGESLTINCVLRDSNCALPSTWYRKKSDSTNEESISKGGRYVETVNSGSKSFSLRINDLTVKDSGTYRCKVLYPNCYRCMWGQVTDVYGGGTAVTVNA
notes: VNAR on phage
B2: Clone 8.5 VNAR-hFc fusion (Fc fusion, human, not shown: small tags and cut ends)
chain (part 1 of 2): ARVDQTPQTITKETGESLTINCVLRDSNCALPSTYWYRKKSGSTNEESISKGGRYVETVNSGSKSFSLRINDLTVEDSGTYRCKVIAQLGWWLRGCNYRKHDVYGDGTAVTVNA
chain (part 2 of 2): DKTHTCPPCPAPPVAGPSVFLFPPKPKDTLMISRTPEVTCVVVDVSHEDPEVKFNWYVDGVEVHNAKTKPREEQYNSTYRVVSVLTVLHQDWLNGKEYKCKVSNKGLPSSIEKTISKAKGQPREPQVYTLPPSRDELTKNQVSLTCLVKGFYPSDIAVEWESNGQPENNYKTTPPVLDSDGSFFLYSKLTVDKSRWQQGNVFSCSVMHEALHNHYTQKSLSLSPGK
notes: domain: Fc (CH2 and CH3); also called the variant
B3: Clone 8.149 (VNAR)
VNAR: B2 chain (part 1 of 2) with G90S, W91S, W92I, R99H, K100P
B4: Clone 8.160 (VNAR)
VNAR: B2 chain (part 1 of 2) with G90S, W91S, W92I, N97F, Y98P, R99Q
B5: Clone 8.153 (VNAR)
VNAR: B2 chain (part 1 of 2) with G90A, W91F, W92G
B6: Clone 8.152 (VNAR)
VNAR: B2 chain (part 1 of 2) with I86M, A87D, G90S, W91N, W92M
B7: Clone 8.161 (VNAR)
VNAR: B2 chain (part 1 of 2) with G90S, W91S, W92I, N97I, Y98A, R99G
B8: Clone 8.151 (VNAR)
VNAR: B2 chain (part 1 of 2) with G90S, W91S, W92L, L93E, R99F, K100Q, H101F
B9: Clone 8.158 (VNAR)
VNAR: B2 chain (part 1 of 2) with G90N, W91V, W92I
B10: Clone 8.162 (VNAR)
VNAR: B2 chain (part 1 of 2) with G90S, W91S, W92N, L93R, R94N
B11: Clone 8.157 (VNAR)
VNAR: B2 chain (part 1 of 2) with Q88Y, L89R, G90K, W91S, W92I, L93V
B12: Clone 8.156 (VNAR)
VNAR: B2 chain (part 1 of 2) with G90S, W91S, W92Q, L93S, R94V
B13: Clone 8.159 (VNAR)
VNAR: B2 chain (part 1 of 2) with G90S, W91S, W92D, L93G, R94Q
B14: Clone 8.150 (VNAR)
VNAR: B2 chain (part 1 of 2) with G90S, W91S, W92I, R99N, K100Q, H101Q
B15: Clone 8.154 (VNAR)
VNAR: B2 chain (part 1 of 2) with G90S, W91S, W92I, N97G, Y98G, R99S
B16: Clone 8.155 (VNAR)
VNAR: B2 chain (part 1 of 2) with G90S, W91S, W92I, R99K, K100I, H101A

Key:
recombinant human TfR-1 [1] = biological target: T1, recombinant human TfR-1 (human, UniProt P02786 89-760); experiment: phage ELISA
T1 construct: extracellular domain; also called hTfR1; human transferrin receptor-1
In short: (§1)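 Binding read out colorimetrically (TMB) via HRP-labelled anti-M13 antibody. Plates coated at 1 μg/ml with recombinant TfR-1 and milk-blocked; milk-blocked single-clone phage supernatants from third-round selection applied.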
T1 sequence (P02786 89-760): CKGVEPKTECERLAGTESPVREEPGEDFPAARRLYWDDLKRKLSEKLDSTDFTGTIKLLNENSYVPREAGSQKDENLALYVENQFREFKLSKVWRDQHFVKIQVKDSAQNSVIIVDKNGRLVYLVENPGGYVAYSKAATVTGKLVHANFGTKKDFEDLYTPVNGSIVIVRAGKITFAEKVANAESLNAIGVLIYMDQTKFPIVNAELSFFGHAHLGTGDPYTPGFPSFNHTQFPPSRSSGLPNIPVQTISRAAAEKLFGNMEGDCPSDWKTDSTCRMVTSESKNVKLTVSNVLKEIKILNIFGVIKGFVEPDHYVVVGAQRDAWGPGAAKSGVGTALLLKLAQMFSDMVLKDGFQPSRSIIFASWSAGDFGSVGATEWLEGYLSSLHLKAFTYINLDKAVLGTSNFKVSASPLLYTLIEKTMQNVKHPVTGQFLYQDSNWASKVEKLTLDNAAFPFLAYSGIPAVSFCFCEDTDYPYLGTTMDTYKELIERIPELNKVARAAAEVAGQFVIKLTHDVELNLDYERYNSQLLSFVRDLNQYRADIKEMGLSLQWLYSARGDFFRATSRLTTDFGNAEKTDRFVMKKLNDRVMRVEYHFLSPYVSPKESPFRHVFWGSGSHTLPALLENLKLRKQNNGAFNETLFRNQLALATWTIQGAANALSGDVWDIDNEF

recombinant mouse TfR-1 [2] = biological target: T2, recombinant mouse TfR-1 (mouse, UniProt Q62351 89-763); experiment: phage ELISA
T2 construct: Bought recombinant protein; also called mTfR1
In short: as §1
T2 sequence (Q62351 89-763 limits assumed): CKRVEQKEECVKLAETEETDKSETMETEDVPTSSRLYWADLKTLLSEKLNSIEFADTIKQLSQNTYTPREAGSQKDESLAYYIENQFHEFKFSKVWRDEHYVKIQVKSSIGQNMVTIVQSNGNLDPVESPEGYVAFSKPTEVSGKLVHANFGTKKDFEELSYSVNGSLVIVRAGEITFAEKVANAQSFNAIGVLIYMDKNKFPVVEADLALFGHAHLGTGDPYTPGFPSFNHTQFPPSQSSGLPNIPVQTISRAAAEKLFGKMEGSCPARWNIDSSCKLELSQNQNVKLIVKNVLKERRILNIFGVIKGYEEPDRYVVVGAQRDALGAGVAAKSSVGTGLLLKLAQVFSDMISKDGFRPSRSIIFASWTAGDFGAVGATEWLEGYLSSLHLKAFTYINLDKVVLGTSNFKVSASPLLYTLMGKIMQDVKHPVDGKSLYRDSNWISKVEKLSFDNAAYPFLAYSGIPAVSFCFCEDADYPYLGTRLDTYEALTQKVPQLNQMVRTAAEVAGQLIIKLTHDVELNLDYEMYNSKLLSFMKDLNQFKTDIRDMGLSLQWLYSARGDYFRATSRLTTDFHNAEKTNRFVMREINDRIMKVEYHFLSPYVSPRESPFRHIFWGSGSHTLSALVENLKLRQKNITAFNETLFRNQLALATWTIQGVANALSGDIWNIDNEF

recombinant human TfR-1 [3] = biological target: T1, recombinant human TfR-1; experiment: ELISA titration, large-scale purified VNAR-hFc
recombinant mouse TfR-1 [4] = biological target: T2, recombinant mouse TfR-1; experiment: ELISA titration, large-scale purified VNAR-hFc
recombinant mouse TfR-1 [5] = biological target: T3, recombinant mouse TfR-1 (mouse, UniProt Q62351 89-763); experiment: phage ELISA, VNAR-phage on plate-coated recombinant mouse TfR-1
T3 construct: Coated at 1 ug/ml for the phage ELISA; also called mTfR1; mouse transferrin receptor-1
T3 sequence (Q62351 89-763 limits assumed): as above

recombinant human TfR-1 [6] = biological target: T4, recombinant human TfR-1 (human, UniProt P02786 89-760); experiment: phage ELISA, VNAR-phage on plate-coated recombinant human TfR-1
T4 construct: also called hTfR1; human transferrin receptor-1
T4 sequence (P02786 89-760 limits assumed): as the sequence (P02786 89-760) above

Binder | phage ELISA A450 (recombinant mouse TfR-1 [5]) [A450] | phage ELISA A450 (recombinant human TfR-1 [6]) [A450] | other results
B1 | – | – | binding result (recombinant human TfR-1 [1]): binds; binding result (recombinant mouse TfR-1 [2]): binds
B2 | – | – | EC50 (recombinant human TfR-1 [3]): 27 nM; fold difference of EC50 against parental Clone 8 (recombinant human TfR-1 [3]): > 25 fold; EC50 (recombinant mouse TfR-1 [4]): 47 nM; fold difference of EC50 against parental Clone 8 (recombinant mouse TfR-1 [4]): > 25 fold
B3 | 0.045 | 0.052 | –
B4 | 0.043 | 0.049 | –
B5 | 0.044 | 0.048 | –
B6 | 0.045 | 0.059 | –
B7 | 0.043 | 0.048 | –
B8 | 0.045 | 0.048 | –
B9 | 0.043 | 0.046 | –
B10 | 0.042 | 0.055 | –
B11 | 0.044 | 0.048 | –
B12 | 0.044 | 0.062 | –
B13 | 0.043 | 0.057 | –
B14 | 0.045 | 0.058 | –
B15 | 0.044 | 0.055 | –
B16 | 0.044 | 0.053 | –
